From the supplement of paper PMC10126150
± gives the standard deviation of the averaged measurements.

Each sequence was assayed on ATP (assay: switch fluorescence ratio, 500 uM ATP over buffer (Cy3 cluster intensity, sum of 5 cycles each) (fold (ratio)); higher = stronger signal-on switching upon ATP binding; sequences stand for … in TCGTCGGCAGCGTCAGATGTGTATAAGAGACAGTTTTTTTTTTTTTTTTTTTTTTTTT…TC). Conditions: aptamer strand: ATP DNA aptamer (quencher-CACCTGGGGGAGTATTGCGGAGGAAGG + anchor), 100 nM annealed; ATP concentration: 500 uM.
Procedure, shortened: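 Clusters with intensities outside 100-1000 RFU were excluded. The remaining Cy3-labelled switching-strand clusters on a modified Illumina MiSeq flow-cell had been annealed to 100 nM quencher-labelled ATP aptamer and imaged in selection buffer, then after 15 min with 500 uM ATP at 22 °C, for five cycles separated by NaOH stripping and re-annealing. The fluorescence ratio, averaged per switch-domain sequence, is each cluster's summed target-cycle Cy3 intensity over its summed buffer-cycle Cy3 intensity.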
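Also: ATP exposure 15 min at 22 °C before imaging.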

| Sequence | switch fluorescence ratio |
| --- | --- |
| GGTATGGCGC | 0.986 ± 0.058 |
| GGTATGGGAG | 0.9913 ± 0.001 |
| GGTATGGGGA | 1 ± 0.022 |
| GGTATTAAGT | 1 ± 0.011 |
| GGTATTATCG | 0.969 ± 0.017 |
| GGTATTGCTT | 0.995 ± 0.0021 |
| GGTATTGGCA | 0.996 ± 0.022 |
| GGTATTGGCC | 0.987 ± 0.013 |
| GGTATTTATC | 0.986 ± 0.038 |
| GGTATTTTTA | 0.9758 ± 0.0046 |
| GGTCAAACCA | 1.03 ± 0.0097 |
| GGTCAATCTA | 0.946 ± 0.045 |
| GGTCACGGCA | 1 ± 0.013 |
| GGTCAGGGTT | 0.954 ± 0.035 |
| GGTCAGTGAT | 1.01 ± 0.06 |
| GGTCATAGTG | 1.01 ± 0.018 |
| GGTCATTTAG | 0.994 ± 0.031 |
| GGTCCAAAAT | 0.9848 ± 0.0089 |
| GGTCCAATTA | 0.977 ± 0.015 |
| GGTCCACCGT | 0.989 ± 0.014 |
| GGTCCAGGTC | 1.12 ± 0.057 |
| GGTCCAGGTT | 1.09 ± 0.068 |
| GGTCCATGCT | 0.961 ± 0.032 |
| GGTCCGTAGG | 1.01 ± 0.033 |
| GGTCCTACTG | 1.01 ± 0.017 |
| GGTCCTGTTG | 1.01 ± 0.035 |

| Sequence | switch fluorescence ratio |
| --- | --- |
| GGTCGCGGAT | 1.01 ± 0.019 |
| GGTCGCGTAG | 1.01 ± 0.03 |
| GGTCGCTTTT | 0.9949 ± 0.0043 |
| GGTCGGACGT | 0.992 ± 0.086 |
| GGTCGGGACC | 0.998 ± 0.033 |
| GGTCGGGGGT | 1.03 ± 0.039 |
| GGTCGGGTTT | 1.01 ± 0.014 |
| GGTCGTAGCC | 0.9719 ± 0.0084 |
| GGTCGTCTGC | 0.984 ± 0.018 |
| GGTCTACCGG | 1.01 ± 0.017 |
| GGTCTAGAAA | 1.21 ± 0.3 |
| GGTCTCTGGG | 1 ± 0.016 |
| GGTCTGCGCG | 1.02 ± 0.037 |
| GGTCTGTATT | 0.972 ± 0.012 |
| GGTCTGTGTG | 0.984 ± 0.028 |
| GGTCTGTTTC | 1.01 ± 0.015 |
| GGTCTTGAGG | 1.01 ± 0.028 |
| GGTCTTGTTG | 1.02 ± 0.036 |
| GGTGAAAGCC | 0.98 ± 0.049 |
| GGTGAAAGGA | 0.979 ± 0.058 |
| GGTGAACAGT | 0.97143 ± 0.00048 |
| GGTGAACCGT | 1.001 ± 0.0046 |
| GGTGAAGGAT | 0.982 ± 0.026 |
| GGTGAAGGTA | 0.929 ± 0.045 |
| GGTGAATAAT | 0.9969 ± 0.0065 |
| GGTGAGAAGT | 1.01 ± 0.013 |

| Sequence | switch fluorescence ratio |
| --- | --- |
| GGTGAGAGGT | 0.9696 ± 0.0055 |
| GGTGAGGCAA | 1.19 ± 0.12 |
| GGTGATGATC | 1.038 ± 0.0044 |
| GGTGATGGGT | 0.971 ± 0.04 |
| GGTGCAACAT | 1.03 ± 0.051 |
| GGTGCGATGC | 1.7 ± 0.081 |
| GGTGCGGTCG | 0.9824 ± 0.0053 |
| GGTGCGTACG | 1.01 ± 0.058 |
| GGTGCTACAC | 1.04 ± 0.025 |
| GGTGCTATCT | 0.992 ± 0.015 |
| GGTGCTGGTG | 1.05 ± 0.025 |
| GGTGGAACAG | 1.02 ± 0.028 |
| GGTGGAAGAT | 1 ± 0.045 |
| GGTGGAAGTA | 0.998 ± 0.064 |
| GGTGGAATCT | 1.02 ± 0.052 |
| GGTGGACACT | 1.03 ± 0.024 |
| GGTGGACTTA | 1.01 ± 0.03 |
| GGTGGAGTCG | 1.009 ± 0.0085 |
| GGTGGATTTG | 0.981 ± 0.062 |
| GGTGGCAAGG | 0.9912 ± 0.0094 |
| GGTGGCCCAA | 1.001 ± 0.0059 |
| GGTGGGAACA | 0.992 ± 0.03 |
| GGTGGGAGCT | 1.01 ± 0.075 |
| GGTGGGATCA | 1.09 ± 0.18 |
| GGTGGGATTC | 1.01 ± 0.014 |
| GGTGGGCTAA | 0.9827 ± 0.0057 |

| Sequence | switch fluorescence ratio |
| --- | --- |
| GGTGGGGATT | 1.07 ± 0.17 |
| GGTGGGGGG | 0.977 ± 0.012 |
| GGTGGGGGGC | 0.978 ± 0.048 |
| GGTGGGGGTA | 1.04 ± 0.042 |
| GGTGGGGGTC | 1.02 ± 0.022 |
| GGTGGGGGTT | 0.999 ± 0.036 |
| GGTGGGGT | 1.01 ± 0.0055 |
| GGTGGGGTAT | 0.98 ± 0.021 |
| GGTGGGTACG | 0.986 ± 0.052 |
| GGTGGGTGGA | 1 ± 0.021 |
| GGTGGGTGGT | 0.99 ± 0.036 |
| GGTGGGTGTG | 1 ± 0.036 |
| GGTGGTTGGC | 1.007 ± 0.0075 |
| GGTGGTTGTT | 1.01 ± 0.043 |
| GGTGTAAAAG | 1.014 ± 0.0036 |
| GGTGTAGCGC | 1.015 ± 0.0075 |
| GGTGTCAGGG | 0.989 ± 0.013 |
| GGTGTCGCTA | 0.9795 ± 0.0094 |
| GGTGTCGTCA | 1.024 ± 0.0081 |
| GGTGTCGTTT | 1.02 ± 0.024 |
| GGTGTCTGCA | 0.9931 ± 0.0019 |
| GGTGTGAGAG | 1.02 ± 0.038 |
| GGTGTGCCAT | 0.9897 ± 0.0069 |
| GGTGTGGCGA | 1.03 ± 0.11 |
| GGTGTGGTGA | 1.06 ± 0.049 |
| GGTGTGTGAC | 0.999 ± 0.016 |

| Sequence | switch fluorescence ratio |
| --- | --- |
| GGTGTGTGAG | 0.965 ± 0.01 |
| GGTGTGTGTT | 0.9951 ± 0.0078 |
| GGTGTTGAGT | 0.993 ± 0.037 |
| GGTGTTGGAT | 1.01 ± 0.002 |
| GGTGTTGGGC | 0.998 ± 0.067 |
| GGTGTTGGTA | 0.974 ± 0.029 |
| GGTGTTGTCT | 1.031 ± 0.0061 |
| GGTGTTTAAG | 0.9717 ± 0.0067 |
| GGTGTTTGTT | 0.956 ± 0.065 |
| GGTTAAAACT | 0.987 ± 0.048 |
| GGTTAAAGGA | 0.95798 ± 0.00066 |
| GGTTAACGGA | 1 ± 0.016 |
| GGTTAACTGT | 1.01 ± 0.026 |
| GGTTAAGAAA | 1.021 ± 0.0081 |
| GGTTAAGAGG | 1.02 ± 0.041 |
| GGTTAGGGCG | 1.0062 ± 0.00068 |
| GGTTAGGGTG | 1.047 ± 0.007 |
| GGTTAGTACA | 1.01 ± 0.041 |
| GGTTATAAGT | 0.975 ± 0.034 |
| GGTTATATTT | 1.03 ± 0.072 |
| GGTTATGCAG | 0.977 ± 0.1 |
| GGTTATGGAG | 0.964 ± 0.046 |
| GGTTATTCGG | 0.993 ± 0.053 |
| GGTTCAACAT | 0.985 ± 0.049 |
| GGTTCAAGGC | 1.05 ± 0.051 |
| GGTTCATCGG | 0.9912 ± 0.0029 |

| Sequence | switch fluorescence ratio |
| --- | --- |
| GGTTCATGAT | 0.993 ± 0.024 |
| GGTTCCGCGG | 1.11 ± 0.025 |
| GGTTCCGGTA | 0.9998 ± 0.00095 |
| GGTTCGAGAC | 1.01 ± 0.025 |
| GGTTCGGGGT | 0.982 ± 0.012 |
| GGTTCGTCAC | 1.11 ± 0.1 |
| GGTTCGTCGT | 0.987 ± 0.02 |
| GGTTCGTGTC | 0.974 ± 0.016 |
| GGTTCTCAGG | 1.02 ± 0.011 |
| GGTTCTGGCG | 0.992 ± 0.045 |
| GGTTCTGGGC | 0.9601 ± 0.0026 |
| GGTTCTTGGT | 0.949 ± 0.028 |
| GGTTCTTTTT | 1.02 ± 0.011 |
| GGTTGAAGGG | 1.014 ± 0.0091 |
| GGTTGAATGA | 0.992 ± 0.053 |
| GGTTGAGGCG | 0.981 ± 0.054 |
| GGTTGAGGTC | 1 ± 0.023 |
| GGTTGAGTCG | 0.989 ± 0.014 |
| GGTTGAGTTC | 0.948 ± 0.036 |
| GGTTGATCCG | 1.01 ± 0.0092 |
| GGTTGCGATC | 1.08 ± 0.03 |
| GGTTGCGGGG | 0.9855 ± 0.0082 |
| GGTTGCTTGA | 0.9848 ± 0.002 |
